Data published in IntAct's records for PubMed 30496485.

B1: Coiled-coil-helix-coiled-coil-helix domain-containing protein 2 (Homo sapiens), Q9Y6H1 (parent)
chain: MPRGSRSRTSRMAPPASRAPQMRAAPRPAPVAQPPAAAPPSAVGSSAAAPRQPGLMAQMATTAAGVAVGSAVGHTLGHAITGGFSGGSNAEPARPDITYQEPQGTQPAQQQQPCLYEIKQFLECAQNQGDIKLCEGFNEVLKQCRLANGLA
partner: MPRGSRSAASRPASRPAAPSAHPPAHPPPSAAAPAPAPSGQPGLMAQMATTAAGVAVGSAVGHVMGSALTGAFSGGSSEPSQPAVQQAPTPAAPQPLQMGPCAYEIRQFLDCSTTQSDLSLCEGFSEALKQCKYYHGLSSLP

Variants of: B1
Details: with chc10_human CHCHD10, Q8WYQ3

| effect of a mutation on the interaction | Variant |
| --- | --- |
| disrupting interaction strength | MPRGSRSRTSRMAPPASRAPQMRAAPRPAPVAQPPAAAPPSAVGSSAAAPRQPGLMAQMAITAAGVAVGSAVGHTLGHAITGGFSGGSNAEPARPDITYQEPQGTQPAQQQQPCLYEIKQFLECAQNQGDIKLCEGFNEVLKQCRLANGLA [T61I] |
| disrupting interaction strength | MPRGSRSRTSRMAPPASRAPQMRAAPRPAPVAQPPAAAPPSAVGSSAAAPRQPGLMAQMATTAAGVAVGSAVGHTLGHAITGGFSGGSNAEPARPDITYQEPQGTQPAQQQQPCLYEIKQFLECAQNQGDIKLCEGFNEVLKQCQLANGLA [R145Q] |
